Results published in the supplement of paper PMC10567573.

B1: TNXB (parent)
chain: FSEIRETSAKVNWMPPPSRADSFK
B2: TMEM192 (parent)
chain: LWILHLLLECYIQYHHSKIRNRGY

Variants of: B1
Experiment: protein stability index of a GFP-peptide fusion (GPS, HEK-293T) (PSI 1-6); higher = more stable
Conditions: c terminus: a fixed tail appended
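Note: lentivirally expressed fusions sorted by FACS into six bins by GFP to DsRed ratio, PSI derived from sequencing read proportions per bin multiplied by bin number.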

Protein stability index of substitutions, site by site:
A20: Q 3.27 | G 3.24 | M 2.79 | P 3.13 | Y 2.93 | H 3.45
S22: D 3.62 | H 3.27 | E 3.69 | P 3.36 | W 2.62 | R 3.95 | Q 3.42
E6: T 2.95 | Y 2.87 | S 2.64 | P 3.21 | H 3.38 | I 1.82 | V 2.84 | N 2.69 | D 3.28
S8: M 3.15 | D 4.48 | N 3.73 | P 3.3 | L 2.79 | F 2.51 | E 3.5 | Q 3.76 | T 3.63
S2: M 3.17 | I 2.17 | W 2.37 | E 3.98 | L 2.97 | D 4.12 | V 1.9 | Q 3.97 | P 3.65 | N 4.04 | H 2.21
M14: I 3.11 | C 2.63 | W 2.98 | Q 3.92 | V 2.96 | K 3.52 | E 4.11
V11: Q 3.65 | E 4 | W 2.73 | L 3.29 | G 3.38 | K 4.2
F1: M 4.15 | T 4.07 | D 5.04 | V 4.19 | R 4.99 | N 4.63 | G 4.22
K10: T 3.96 | C 3 | S 3.76 | M 3.72 | H 3.32 | N 2.94
N12: W 2.2 | Y 2.09 | P 3.17 | I 3.24 | E 3.46 | S 3.38 | D 3.83 | Q 3.04
W13: Q 4.23 | T 4.03 | I 4.47 | L 4 | G 4.15 | R 4.21 | P 4.43 | H 3.61 | E 4.94 | N 4.49 | C 4.27
F23: M 3.82 | I 3.5 | D 4.56 | T 4.06 | G 3.24 | P 4.55 | S 3.89 | L 3.91 | C 4.22
P16: K 3.33 | Y 2.67 | I 3.15 | N 2.89 | V 3.41 | T 3.27 | M 2.89 | C 3.14
D21: C 2.79 | N 3.34 | W 2.45 | P 3.61 | S 3.62 | G 3.52 | L 3.06 | R 3.52
K24: C 2.94 | V 2.63 | D 3.41 | S 3.29 | R 3.29 | T 3.37 | M 2.48 | P 3.14
R5: E 4.23 | L 3.51 | K 3.74 | V 3.52
I4: C 3.49 | G 4.34 | P 4.16 | S 4.01 | V 3.56 | H 4.14 | Y 2.94
R19: W 2.18 | S 3.73 | E 4.2 | M 3.12 | P 3.7 | C 3.33 | N 3.85 | D 4.25 | V 3.38
P17: Y 2.67 | V 3.23 | T 3.99 | G 3.81 | N 3.35 | H 3.08 | Q 3.24
E3: L 2.47 | T 3.52 | S 3.09 | F 2.38 | W 2.6
T7: P 3.64 | L 2.69 | C 3.24 | K 3.97 | F 1.78 | E 3.88 | Y 2.25 | A 3.23
A9: E 4.04 | G 3.04 | H 3.36 | L 3.41 | Y 2.82 | C 2.38 | R 3.29 | W 2.46 | D 3.58 | I 2.83
S18: L 2.75 | V 3.32 | W 1.98 | K 3.57
P15: V 3.48 | K 3.33 | E 3.49 | C 2.71 | L 3.21 | M 3.27 | T 3.38 | G 3.29

Variants of: B2
Experiment: as above
Conditions: c terminus: a fixed tail appended

Protein stability index: each site, then its substitutions
I12: Q 1.62 | G 1.07 | M 1.82 | T 2.58 | N 2.13 | W 1.79 | S 1.94 | D 1.5
L7: Y 2.48 | A 3.25 | M 2.51 | Q 2.34 | P 2.33
Q13: A 3.94 | E 1.8 | K 2.05 | T 1.75 | N 3.19 | G 1.39 | R 2.9 | C 2.06 | L 2 | P 3
L8: K 2.54 | I 3.28 | M 2.01 | W 2.98 | Y 2.71 | T 2.86 | R 2.96 | H 3.75 | D 4.78 | F 2.57
Y24: A 2.18 | G 3.91 | K 1.31 | M 2.28 | S 2.3
N21: K 1.98 | H 2.53 | F 1.97 | Y 2.6
L6: Y 1.8 | S 1.62 | I 1.65 | D 1.87 | M 1.65 | T 2.81 | A 2.43
S17: C 2.7 | I 2.57 | G 2.28 | V 1.59 | N 2.6 | P 2.26 | R 3.51 | T 2.08
W2: V 3.84 | S 1.58 | P 1.23 | M 2.41 | T 1.86 | H 2.14 | D 1.88 | E 1.73
L4: M 2.39 | S 3.7 | A 4.26 | F 1.69 | H 3.85 | Y 2.68 | K 2.51 | P 2.85
I3: Q 1.37 | H 2.09 | K 2.31 | V 2.65 | C 2.62
H16: I 3.68 | W 2.85 | K 1.64 | G 2.53 | P 2.29
H5: L 2.28 | Q 1.72
Y14: P 2.67 | E 2.18 | K 2.01 | T 2.49 | R 2.11 | V 2.53
H15: G 2.37 | S 2.72 | Y 2.86 | T 1.25 | Q 2.24 | M 2.41 | C 2.19 | R 2.33
L1: T 3.75 | H 4.56 | D 3 | C 2.89 | I 2.1 | G 3.04
Y11: S 3.45 | I 2.47 | H 1.77 | M 2.48
R22: I 2.69 | C 4.22 | F 2.93 | N 2.26 | A 2.18
E9: P 3.73 | S 2.28 | R 2.99 | W 3.27 | I 2.56 | F 3.6 | H 1.47 | T 1.96
C10: L 4.54 | W 1.4 | H 1.98 | E 1.94 | K 1.72 | N 1.79 | R 2.03 | F 2.53
K18: D 3.53 | T 2.76 | G 2.69
G23: Q 2.51 | Y 1.89 | A 2.48 | K 2.54 | M 1.87
R20: Y 2.69 | P 3.47 | D 2.8 | L 1.89 | I 3.52 | N 2.26 | A 3.18
I19: L 2.14 | D 1.73 | K 1.31 | F 3.16 | T 1.94 | A 2.33 | G 2.44
